Molecular target: profilin1 (PFN1) (UniProt P07737)
Experiment: GST-PFN1 pull-down from cell lysate
Settings: reference: wild type

Substance | binding against the reference (sites S629) | binding against the reference (sites S665)
DIAPH1 (from UniProt O60610) S629A | stronger | 
DIAPH1 (from UniProt O60610) S665A |  | stronger

Source: publication PMC6395754
